Data reported in article PMC3911951, “Crystal Structure of Arginine Methyltransferase 6 from Trypanosoma brucei” (PLoS ONE, 2014).

Columns and labels:
[1] = target: Trypanosoma brucei arginine methyltransferase 6 (TbPRMT6) (Trypanosoma brucei); experiment: ITC; 3 mM AcH4-21 peptide injected into 100 µM TbPRMT6 with SAH bound; 25°C; 30 mM Tris pH 8.0, 100 mM NaCl, 1 mM EDTA; one-binding-site model
[2] = target: Trypanosoma brucei arginine methyltransferase 6 (TbPRMT6) (Trypanosoma brucei); experiment: SAXS; FL-TbPRMT6 at 1.0, 3.0 and 5.0 mg/ml in 30 mM Tris pH 8.0, 200 mM NaCl, 1 mM EDTA; molecular mass by SAXSMOW
[3] = target: Trypanosoma brucei arginine methyltransferase 6 (TbPRMT6), SAH-bound (Trypanosoma brucei); experiment: ITC; AcH4-21 peptide (3 mM) injected into TbPRMT6 (100 uM) bound to SAH; MicroCal iTC200, 25 °C; 30 mM Tris pH 8.0, 100 mM NaCl, 1 mM EDTA; one-binding-site model

peptide corresponding to the first 21 residues of bovine histone H4 (AcH4-21)
Kd [1]: 45 µM

Trypanosoma brucei arginine methyltransferase 6 (TbPRMT6) (enzyme)
stoichiometry N [2]: 2

AcH4-21, peptide corresponding to the first 21 residues of bovine histone H4
stoichiometry N [3]: 1.79
